Numbering of substitutions follows the chain as printed.
B1: antibody 3 (antibody, V domains shown)
VH: QVTLKESGPGILQPSQTLSLTCSFSGFSLTTFAMGIGWVRQPSGKGLEWLAHIWWDGEKYNNPVLKSRLTISKDTSKNQVFLRIANVDTPDTATYYCARISSIYYIIDNWGQGTSVTVSS
VL: DIVLTQSPATLSVTPGHSVSLSCRASQSISNNLHWYQKKSHESPRLLIKYVSQSISGIPSRFSGSGSGTDFTLSINSVETEDFGMYFCQQSYNWPLTFGAGTKLELK
notes: mouse IgG, kappa light chain; also called clone #3; purified antibody 3
B2: antibody 5 (antibody, V domains shown)
VH: QVTLKESGPGILQPSQTLSLTCSFSGFSLSTFGMGVGWIRQPSGKGLEWLAHIWWDDEKYYNSALKSRLTISKATSKNQAFLKIANVDTADTATYYCARISNYGSNYWYFNVWGTGTTVTVSS
VL: QVVLTQSPALMSASPGEKVTMTCSAGSSVSCMYWYQQKPGSSPRVLIYDTSNLASGVPARFTGSGSGTSYSLTISRMEAEDAASYYCQQWNSYPLTFGAGTKLELK
notes: mouse IgG, kappa light chain; also called clone #5; purified antibody 5
B3: antibody 43 (antibody, V domains shown)
VH: B2 VH with T3A, P42S, H52N, E58D, S63P, A74D, T75A, S101G, N111D
VL: QIVLTQSPAIMSASPGERVTMTCSANSRISYMYWYQQKPGSSPRLLIYDTSNLASGVPVRFSGSGSGTSYSLTISRMEAEDAATYNCQQWSSYPLTFGAGTKLELK
notes: mouse IgG, kappa light chain; also called clone #43; purified antibody 43
B4: antibody 44 (antibody, V domains shown)
VH: B2 VH with G44E, E58D, S63P, A74D, A80I, A85T, D91E, A98S, S101G, N111D
VL: QIVLTQSPAVMSASPGEKVTMTCTASSSVYYMYWYQQTPGSSPRLLIYDTSNLASGVPVRFSGSGSGTSYSLTISRMEAEDAATYYCQQWNTYPLTFGAGTKLELK
notes: mouse IgG, kappa light chain; also called clone #44; purified antibody 44
B5: antibody 42 (antibody, V domains shown)
VH: B2 VH with F24L, M34R, S63P, A74D, A80V, K83R, S101Q, N111D
VL: B3 VL with Q1L, R18K, S24G, N26T, Y33F, L45V, M77V, A82V, N86Y, S91N
notes: mouse IgG, kappa light chain; also called clone #42; purified antibody 42
B6: antibody 22 (antibody, V domains shown)
VH: B2 VH with A80V
VL: B2 VL with C31Y, S84T
notes: mouse IgG, kappa light chain; also called clone #22; purified antibody 22
B7: antibody 34 (antibody, V domains shown)
VH: QVTLKESGPGILQPSQTLSLTCSFSGFSLSTFSLGVGWIRQSSGKGLEWLAHIWWDDEKYYNPALKSRLTISKDTSKNQVFLKIANVDAADTATYYCARAYYSKSYYALDYWGQGTSVTVSS
VL: DIQMTQSPSSLSASLGERVSLTCRASQEISGYLSWLQQKPDGTIKRLIYAASTLDSGVPKRFSGSRSGSDYSLAISSLESEDFADYYCLQYANFPFTFGSGTKLEIK
notes: mouse IgG, kappa light chain; also called clone #34; purified antibody 34

Experiments:
[1] = target: T1, hiR2-FL-S561A-T7 (human, UniProt Q6PJF5 1-856); assay: FACS on MEF-DKO cells expressing the variant, 3 µg/ml antibody
T1 sequence: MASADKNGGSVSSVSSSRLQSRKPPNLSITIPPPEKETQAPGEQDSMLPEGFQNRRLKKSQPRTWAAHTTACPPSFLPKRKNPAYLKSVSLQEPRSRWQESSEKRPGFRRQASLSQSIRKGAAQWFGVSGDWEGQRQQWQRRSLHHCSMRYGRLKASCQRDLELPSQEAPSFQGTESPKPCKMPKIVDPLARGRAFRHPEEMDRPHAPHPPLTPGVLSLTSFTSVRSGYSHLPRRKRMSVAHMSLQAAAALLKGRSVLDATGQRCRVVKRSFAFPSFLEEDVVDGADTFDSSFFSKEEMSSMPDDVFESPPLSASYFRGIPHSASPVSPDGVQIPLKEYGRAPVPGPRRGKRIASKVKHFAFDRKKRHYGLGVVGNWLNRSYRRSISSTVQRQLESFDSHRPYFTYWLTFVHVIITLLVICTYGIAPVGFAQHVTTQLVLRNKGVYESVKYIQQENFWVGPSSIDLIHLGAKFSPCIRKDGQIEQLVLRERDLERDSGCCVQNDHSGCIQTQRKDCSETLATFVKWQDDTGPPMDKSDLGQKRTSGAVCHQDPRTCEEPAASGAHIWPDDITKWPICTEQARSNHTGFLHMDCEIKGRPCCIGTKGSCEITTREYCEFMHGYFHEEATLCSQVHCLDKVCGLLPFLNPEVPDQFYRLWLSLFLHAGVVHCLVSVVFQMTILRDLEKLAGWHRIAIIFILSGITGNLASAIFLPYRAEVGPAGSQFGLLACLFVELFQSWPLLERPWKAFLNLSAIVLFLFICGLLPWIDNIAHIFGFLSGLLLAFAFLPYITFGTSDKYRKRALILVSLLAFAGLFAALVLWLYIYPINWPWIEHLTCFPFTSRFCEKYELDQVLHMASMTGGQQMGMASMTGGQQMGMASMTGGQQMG
Method: (§1) To pellet cells and remove supernatants, the plates were centrifuged at 1,500 rpm and 4° C. for 3 minutes. For primary staining, cells were resuspended in 100 μl per well of either FACS buffer alone (controls) or the purified antibodies 3, 5, 16, 22, 34, 42, 43, 44, 48, and 50 of the invention at 3 μg/ml in FACS buffer and incubated on ice for 1 hour. Afterwards, plates were centrifuged at 1,500 rpm and 4° C. for 3 minutes and washed twice with 200 μl per well of FACS buffer. For secondary staining, cells were spun down and resuspended in 100 μl per well of PE-conjugated goat anti-mouse IgG F(ab′)2 detection fragment (Dianova, Germany) diluted 1:100 in FACS buffer. Protected from light, the cell suspensions were incubated on ice for 1 hour. Plates were then centrifuged at 1,500 rpm and 4° C. for 3 minutes and washed three times with 200 μl per well of FACS buffer. Finally, cells were resuspended in 150 μl per well of FACS buffer and analyzed using a BD Accuri™ C6 Plus flow cytometer (Becton Dickinson, Germany).

[2] = target: T2, hiR2-FL-C508A-T7 (human, UniProt Q6PJF5 1-856); assay: as above
T2 construct: reduced surface expression reported
T2 sequence: T1 sequence with C508A, A561S
Method: as §1

| Binder | loss of binding vs wild type [1] [%] | loss of binding vs wild type [2] [%] |
| --- | --- | --- |
| B1 | ≥ 30 |  |
| B2 | ≥ 30 | ≥ 30 |
| B3 | ≥ 30 | ≥ 30 |
| B4 | ≥ 30 | ≥ 30 |
| B5 | ≥ 30 | ≥ 30 |
| B6 | ≥ 30 | ≥ 30 |
| B7 | ≥ 30 | ≥ 30 |
